Consider 94 variants from the supplement of paper PMC10567573.

First the molecules themselves.
B1: TAF7L (parent)
chain: PDVENEVKRLLRSDAEAVSTRWEV
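Further: lentivirally expressed fusions sorted by FACS into six bins by GFP to DsRed ratio, PSI derived from sequencing read proportions per bin multiplied by bin number.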

Variants of B1 are the subject of the series. The experiment in a line: protein stability index of a GFP-peptide fusion (GPS, HEK-293T) (PSI 1-6); higher = more stable. The following applies: c terminus: a fixed tail appended.
On to PDVENEVKRLLRSDVEAVSTRWEV, for which the protein stability index is 3.02.
Take PDVENEVKRLLRSDSEAVSTRWEV: the protein stability index stood at 3.22.
Then PDVENEVKRLLRSDQEAVSTRWEV, with 3.46; and PDVENEVKRLLRSDTEAVSTRWEV, with 1.9.
As for PDVENEVKRLLRSDDEAVSTRWEV, the figure is 4.09; as for PDVENEVKRLLRSDWEAVSTRWEV, 2.93; as for PDVENEVKRLLRSDLEAVSTRWEV, 3.58.
As for PDVENEVKRLLRSDEEAVSTRWEV, the figure is 4.36.
As to PDVENEVKRLLRSDYEAVSTRWEV, the protein stability index amounted to 3.51.
In the case of PDVENEVKRLLRSDNEAVSTRWEV, the protein stability index was 3.54.
Then PDVENEVKRLLRSDFEAVSTRWEV, with 2.57; and PDVENEVKRLLRSDREAVSTRWEV, with 2.99.
Then PDVENEVKRLLRSDHEAVSTRWEV, with 3.88; and PDVENEVKRLLRSDPEAVSTRWEV, with 3.19.
As for PDVENEVKRLLRSDGEAVSTRWEV, the figure is 3.97; as for PDMENEVKRLLRSDAEAVSTRWEV, 3.5; as for PDPENEVKRLLRSDAEAVSTRWEV, 4.43.
For the variant PDTENEVKRLLRSDAEAVSTRWEV, the protein stability index is 3.99.
As for PDHENEVKRLLRSDAEAVSTRWEV, the figure is 3.86.
As for PDSENEVKRLLRSDAEAVSTRWEV, the figure is 3.13; as for PDKENEVKRLLRSDAEAVSTRWEV, 4.4; as for PDQENEVKRLLRSDAEAVSTRWEV, 3.79.
Then PDNENEVKRLLRSDAEAVSTRWEV, with 3.09.
Regarding PDVENGVKRLLRSDAEAVSTRWEV, the protein stability index is 3.25.
As for PDVENKVKRLLRSDAEAVSTRWEV, the figure is 3.17.
Take PDVENMVKRLLRSDAEAVSTRWEV: the protein stability index was found to be 2.05.
Then PDVENNVKRLLRSDAEAVSTRWEV, with 3.12; and PDVENCVKRLLRSDAEAVSTRWEV, with 2.9.
As for PDVENHVKRLLRSDAEAVSTRWEV, the protein stability index was 2.9.
Turning to PDVENRVKRLLRSDAEAVSTRWEV, the protein stability index was determined as 3.65.
Then PDVENSVKRLLRSDAEAVSTRWEV, with 3.21.
Then PDVENPVKRLLRSDAEAVSTRWEV, with 4.02; and PDVENEVKRLLRSDAEAVPTRWEV, with 3.75; and PDVENEVKRLLRSDAEAVFTRWEV, with 2.73.
Then PDVENEVKRLLRSDAEAVHTRWEV, with 3.18; and PDVENEVKRLLRSDAEAVYTRWEV, with 2.08.
In the case of PDVENEVKRLLRSDAEAVMTRWEV, the protein stability index turned out to be 2.48.
As for PDVENEVKRLLRSDAEAVITRWEV, the figure is 3.03; as for PDVENEVKRLLRSDAEAVGTRWEV, 3.54.
As to PDVENEVKRLPRSDAEAVSTRWEV, the protein stability index was 4.74.
As for PDVENEVKRLERSDAEAVSTRWEV, the figure is 5.07; as for PDVENEVKRLSRSDAEAVSTRWEV, 3.53; as for PDVENEVKRLMRSDAEAVSTRWEV, 3.14.
Then PDVENEVKRLCRSDAEAVSTRWEV, with 3.25.
Then PDVENEVKRLQRSDAEAVSTRWEV, with 4.35; and PDVENEVKRLKRSDAEAVSTRWEV, with 4.37.
Consider PDVENEVKRLDRSDAEAVSTRWEV, for which the protein stability index is 4.9.
With PDVENEVKRLNRSDAEAVSTRWEV, the protein stability index turned out to be 4.79.
Consider PDVENEVKRLRRSDAEAVSTRWEV, for which the protein stability index came out at 4.2.
As for PDVENEVKRLARSDAEAVSTRWEV, the figure is 4.29.
With PDVENEVKRLTRSDAEAVSTRWEV, the protein stability index was found to be 4.11.
For the variant PDVENEVKRLLRSDACAVSTRWEV, the protein stability index was determined as 2.01.
Consider PDVENEVKRLLRSDASAVSTRWEV, for which the protein stability index worked out at 3.17.
As for PDVENEVKRLLRSDAHAVSTRWEV, the figure is 2.9.
For PDVENEVKRLLRSDAQAVSTRWEV, the protein stability index is 3.22.
Then PDVENEVKRLLRSDAYAVSTRWEV, with 1.46.
For the variant PDVENEVKRLLRSDAMAVSTRWEV, the protein stability index stood at 1.71.
As for PDVENEVKRLLRSDARAVSTRWEV, the figure is 2.12; as for PDVENEVKRLLRSDAPAVSTRWEV, 3.18.
Then PDVENEVKRLLRSDATAVSTRWEV, with 2.77; and PDVENEVKRLLRSDAFAVSTRWEV, with 2.27.
As for PDVENEVKRLLRSDADAVSTRWEV, the figure is 3.74; as for PDVENEVKRLLRSDAIAVSTRWEV, 2.08.
With PDVENEVKRLLRSDALAVSTRWEV, the protein stability index stood at 2.73.
As for PDVENEVKRLLRSDAKAVSTRWEV, the figure is 2.65; as for PDVENEVKRLLRSDAECVSTRWEV, 3.54; as for PDVENEVKRLLRSDAEVVSTRWEV, 3.35.
PDVENEVKRLLRSDAEFVSTRWEV: the protein stability index amounted to 2.64.
In the case of PDVENEVKRLLRSDAETVSTRWEV, the protein stability index was determined as 2.71.
With PDVENEVKRLLRSDAEGVSTRWEV, the protein stability index came out at 3.69.
As for PDVENEVKRLLRSDAEPVSTRWEV, the figure is 3.28; as for PDVENEVKRLLRSDAENVSTRWEV, 3.61.
PDVENEVKRLLRSDAESVSTRWEV: the protein stability index amounted to 3.93.
As for PDVENEVKRLLRSYAEAVSTRWEV, the figure is 1.45.
Take PDVENEVKRLLRSSAEAVSTRWEV: the protein stability index was 2.26.
Then PDVENEVKRLLRSTAEAVSTRWEV, with 2.12.
Then PDVENEVKRLLRSHAEAVSTRWEV, with 3.25; and PDVENEVKRLLRSPAEAVSTRWEV, with 2.13; and PDVENEVKRLLRSWAEAVSTRWEV, with 1.48.
Then PDVENEVKRLLRSLAEAVSTRWEV, with 1.77; and PDVENEVKRLLRSMAEAVSTRWEV, with 3.06; and PDVENEVKRLLRSRAEAVSTRWEV, with 2.38.
As to PDVENEVKRLLRSAAEAVSTRWEV, the protein stability index amounted to 1.97.
As for PDVENEVKRLLRSNAEAVSTRWEV, the figure is 2.75.
Turning to PDVENEVKRLLRSDAEAPSTRWEV, the protein stability index was found to be 3.31.
With PDVENEVKRLLRSDAEAGSTRWEV, the protein stability index was determined as 4.29.
As for PDVENEVKRLLRSDAEATSTRWEV, the figure is 3.83; as for PDVENEVKRLLRSDAEAFSTRWEV, 2.31.
With PDVENEVKRLLRSDAEAWSTRWEV, the protein stability index was 2.22.
As for PDVENEVKRLLRSDAEAQSTRWEV, the figure is 3.9.
On to PDVENEVKRLLRSDAEAYSTRWEV, for which the protein stability index was determined as 3.37.
Then PDVENEVKRLLRSDAEAESTRWEV, with 4.54; and PDVENEVKRLLRSDAEAMSTRWEV, with 4.78; and PDVENEVKRLLRSDAEAKSTRWEV, with 2.9.
